Measured values published in US20190322724A1.
pKi: −log10 of the molar value.

molecular target: active 62 kDa MMP-2 (UniProt P08253); assay: fluorometric MMP-2 activity assay, competitive inhibition fit; TIMP-2 0-2.5 nM, substrate 0.83-6.66 µM
Sequence (P08253 110-660 limits assumed): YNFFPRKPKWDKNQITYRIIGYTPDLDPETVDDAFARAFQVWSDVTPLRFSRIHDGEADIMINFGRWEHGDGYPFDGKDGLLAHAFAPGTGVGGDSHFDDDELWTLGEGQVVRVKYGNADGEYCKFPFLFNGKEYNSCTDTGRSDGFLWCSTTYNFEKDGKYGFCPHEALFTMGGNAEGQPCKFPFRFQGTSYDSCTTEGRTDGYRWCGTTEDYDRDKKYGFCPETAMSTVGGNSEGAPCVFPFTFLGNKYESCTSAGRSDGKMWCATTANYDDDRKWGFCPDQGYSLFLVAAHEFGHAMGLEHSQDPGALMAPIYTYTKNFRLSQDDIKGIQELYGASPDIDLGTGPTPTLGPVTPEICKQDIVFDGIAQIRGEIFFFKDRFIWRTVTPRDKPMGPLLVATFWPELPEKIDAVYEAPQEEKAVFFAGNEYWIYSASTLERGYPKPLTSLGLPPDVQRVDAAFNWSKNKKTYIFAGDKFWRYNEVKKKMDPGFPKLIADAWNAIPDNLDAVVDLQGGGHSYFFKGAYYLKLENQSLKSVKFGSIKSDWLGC

wild type human TIMP-2 with C-terminal His6 tag (WT TIMP-2-His6), sequence (P16035 other isoform, or with tags, fused parts or gaps): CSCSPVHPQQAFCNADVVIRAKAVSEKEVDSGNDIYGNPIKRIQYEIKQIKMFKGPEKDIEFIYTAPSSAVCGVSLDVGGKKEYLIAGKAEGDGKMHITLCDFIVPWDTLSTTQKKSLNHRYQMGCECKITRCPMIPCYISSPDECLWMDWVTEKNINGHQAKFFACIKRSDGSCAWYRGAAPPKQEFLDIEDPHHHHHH

Row | Substance | pKi
1 | wild type human TIMP-2 with C-terminal His6 tag (WT TIMP-2-His6) (from UniProt P16035 27-220) | 8.82
2 | TIMP-2 Y90F-His6 (from UniProt P16035 27-220) | 8.85
3 | TIMP-2 Y90E-His6 (from UniProt P16035 27-220) | 9.52
